B1: TR01H065-E22Hh/none-Hi-Kn010G3/L0000-k0 (antibody, human IgG1, kappa, L234A L235A, N297A)
heavy: QVQLVESGGGLVQPGRSLRLSCAASGFTFSNAWMHWVRQAPGKGLEWVAQIKDKSQNYATYYAESVKGRFTISRDDSKNSIYLQMNSLKTEDTAVYYCRYVHYAASYGVDAWGQGTTVTVSSASTKGPSVFPLAPSSKSTSGGTAALGCLVKDYFPEPVTVSWNSGALTSGVHTFPAVLQSSGLYSLSSVVTVPSSSLGTQTYICNVNHKPSNTKVDKKVEPKSCDKTHTCPPCPAPEAAGGPSVFLFPPKPKDTLMISRTPEVTCVVVDVSHEDPEVKFNWYVDGVEVHNAKTKPREEQYASTYRVVSVLTVLHQDWLNGKEYKCKVSNKALPAPIEKTISKAKGQPREPQVYTLPPSRCELTKNQVSLSCAVKGFYPSDIAVEWESNGQPENNYKTTPPVLDSDGSFFLVSKLTVDKSRWQQGNVFSCSVMHEALHNHYTQKSLSLSPDYKDDDDK
chain: EPKSSDKTHTCPPCPAPELLGGPSVFLFPPKPKDTLMISRTPEVTCVVVDVSHEDPEVKFNWYVDGVEVHNAKTKPREEQYNSTYRVVSVLTVLHQDWLNGKEYKCKVSNKALPAPIEKTISKAKGQPREPQVCTLPPSRDELTKNQVSLWCLVKGFYPSDIAVEWESNGQPENNYKTTPPVLDSDGSFFLYSKLTVDKSRWQQGNVFSCSVMHEALHNRYTQKSLSLSP
light: DIVMTQSPLSLPVTPGEPASISCRSSQSLVHSNRNTYLHWYQQKPGQAPRLLIYKVSNRFSGVPDRFSGSGSGTDFTLKISRVEAEDVGVYYCGQGTQVPYTFGQGTKLEIKRTVAAPSVFIFPPSDEQLKSGTASVVCLLNNFYPREAKVQWKVDNALQSGNSQESVTEQDSKDSTYSLSSTLTLSKADYEKHKVYACEVTHQGLSSPVTKSFNRGEC
notes: single-arm
B2: TR01H066-E22Hh/none-Hi-Kn010G3/L0000-k0 (antibody, human IgG1, kappa, L234A L235A, N297A)
heavy: QVQLVESGGGLVQPGRSLRLSCAASGFTFSNAWMHWVRQAPGKGLEWVAQIKDKSQNYATYYAESVKGRFTISRADSKNSLYLQMNSLKTEDTAVYYCRYVHYAASYGVDAWGQGTTVTVSSASTKGPSVFPLAPSSKSTSGGTAALGCLVKDYFPEPVTVSWNSGALTSGVHTFPAVLQSSGLYSLSSVVTVPSSSLGTQTYICNVNHKPSNTKVDKKVEPKSCDKTHTCPPCPAPEAAGGPSVFLFPPKPKDTLMISRTPEVTCVVVDVSHEDPEVKFNWYVDGVEVHNAKTKPREEQYASTYRVVSVLTVLHQDWLNGKEYKCKVSNKALPAPIEKTISKAKGQPREPQVYTLPPSRCELTKNQVSLSCAVKGFYPSDIAVEWESNGQPENNYKTTPPVLDSDGSFFLVSKLTVDKSRWQQGNVFSCSVMHEALHNHYTQKSLSLSPDYKDDDDK
chain: EPKSSDKTHTCPPCPAPELLGGPSVFLFPPKPKDTLMISRTPEVTCVVVDVSHEDPEVKFNWYVDGVEVHNAKTKPREEQYNSTYRVVSVLTVLHQDWLNGKEYKCKVSNKALPAPIEKTISKAKGQPREPQVCTLPPSRDELTKNQVSLWCLVKGFYPSDIAVEWESNGQPENNYKTTPPVLDSDGSFFLYSKLTVDKSRWQQGNVFSCSVMHEALHNRYTQKSLSLSP
light: DIVMTQSPLSLPVTPGEPASISCRSSQSLVHSNRNTYLHWYQQKPGQAPRLLIYKVSNRFSGVPDRFSGSGSGTDFTLKISRVEAEDVGVYYCGQGTQVPYTFGQGTKLEIKRTVAAPSVFIFPPSDEQLKSGTASVVCLLNNFYPREAKVQWKVDNALQSGNSQESVTEQDSKDSTYSLSSTLTLSKADYEKHKVYACEVTHQGLSSPVTKSFNRGEC
notes: single-arm
B3: TR01H067-E22Hh/none-Hi-Kn010G3/L0200-k0 (antibody, human IgG1, kappa, L234A L235A, N297A)
heavy: QVQLVESGGGLVQPGRSLRLSCAASGFTFSNAWMHWVRQAPGKGLEWVAQIKDKSQNYATYYAESVKGRFTISRDDSKNSLYLQMNSLKTEDTAVYYCRYVHYAASYGVDAWGQGTTVTVSSASTKGPSVFPLAPSSKSTSGGTAALGCLVKDYFPEPVTVSWNSGALTSGVHTFPAVLQSSGLYSLSSVVTVPSSSLGTQTYICNVNHKPSNTKVDKKVEPKSCDKTHTCPPCPAPEAAGGPSVFLFPPKPKDTLMISRTPEVTCVVVDVSHEDPEVKFNWYVDGVEVHNAKTKPREEQYASTYRVVSVLTVLHQDWLNGKEYKCKVSNKALPAPIEKTISKAKGQPREPQVYTLPPSRCELTKNQVSLSCAVKGFYPSDIAVEWESNGQPENNYKTTPPVLDSDGSFFLVSKLTVDKSRWQQGNVFSCSVMHEALHNHYTQKSLSLSPDYKDDDDK
chain: EPKSSDKTHTCPPCPAPELLGGPSVFLFPPKPKDTLMISRTPEVTCVVVDVSHEDPEVKFNWYVDGVEVHNAKTKPREEQYNSTYRVVSVLTVLHQDWLNGKEYKCKVSNKALPAPIEKTISKAKGQPREPQVCTLPPSRDELTKNQVSLWCLVKGFYPSDIAVEWESNGQPENNYKTTPPVLDSDGSFFLYSKLTVDKSRWQQGNVFSCSVMHEALHNRYTQKSLSLSP
light: DIVMTQSPLSLPVTPGEPASISCRPSQSPVHSNRNTYLHWYQQKPGQAPRLLIYKVSNRFSGVPDRFSGSGSGTDFTLKISRVEAEDVGVYYCGQGTQVPYTFGQGTKLEIKRTVAAPSVFIFPPSDEQLKSGTASVVCLLNNFYPREAKVQWKVDNALQSGNSQESVTEQDSKDSTYSLSSTLTLSKADYEKHKVYACEVTHQGLSSPVTKSFNRGEC
notes: single-arm
B4: TR01H067-E22Hh/none-Hi-Kn010G3/L0201-k0 (antibody, human IgG1, kappa, L234A L235A, N297A)
heavy: QVQLVESGGGLVQPGRSLRLSCAASGFTFSNAWMHWVRQAPGKGLEWVAQIKDKSQNYATYYAESVKGRFTISRDDSKNSLYLQMNSLKTEDTAVYYCRYVHYAASYGVDAWGQGTTVTVSSASTKGPSVFPLAPSSKSTSGGTAALGCLVKDYFPEPVTVSWNSGALTSGVHTFPAVLQSSGLYSLSSVVTVPSSSLGTQTYICNVNHKPSNTKVDKKVEPKSCDKTHTCPPCPAPEAAGGPSVFLFPPKPKDTLMISRTPEVTCVVVDVSHEDPEVKFNWYVDGVEVHNAKTKPREEQYASTYRVVSVLTVLHQDWLNGKEYKCKVSNKALPAPIEKTISKAKGQPREPQVYTLPPSRCELTKNQVSLSCAVKGFYPSDIAVEWESNGQPENNYKTTPPVLDSDGSFFLVSKLTVDKSRWQQGNVFSCSVMHEALHNHYTQKSLSLSPDYKDDDDK
chain: EPKSSDKTHTCPPCPAPELLGGPSVFLFPPKPKDTLMISRTPEVTCVVVDVSHEDPEVKFNWYVDGVEVHNAKTKPREEQYNSTYRVVSVLTVLHQDWLNGKEYKCKVSNKALPAPIEKTISKAKGQPREPQVCTLPPSRDELTKNQVSLWCLVKGFYPSDIAVEWESNGQPENNYKTTPPVLDSDGSFFLYSKLTVDKSRWQQGNVFSCSVMHEALHNRYTQKSLSLSP
light: DIVMTQSPLSLPVTPGEPASISCRSSQPPVHSNRNTYLHWYQQKPGQAPRLLIYKVSNRFSGVPDRFSGSGSGTDFTLKISRVEAEDVGVYYCGQGTQVPYTFGQGTKLEIKRTVAAPSVFIFPPSDEQLKSGTASVVCLLNNFYPREAKVQWKVDNALQSGNSQESVTEQDSKDSTYSLSSTLTLSKADYEKHKVYACEVTHQGLSSPVTKSFNRGEC
notes: single-arm
B5: TR01H067-E22Hh/none-Hi-Kn010G3/L0203-k0 (antibody, human IgG1, kappa, L234A L235A, N297A)
heavy: QVQLVESGGGLVQPGRSLRLSCAASGFTFSNAWMHWVRQAPGKGLEWVAQIKDKSQNYATYYAESVKGRFTISRDDSKNSLYLQMNSLKTEDTAVYYCRYVHYAASYGVDAWGQGTTVTVSSASTKGPSVFPLAPSSKSTSGGTAALGCLVKDYFPEPVTVSWNSGALTSGVHTFPAVLQSSGLYSLSSVVTVPSSSLGTQTYICNVNHKPSNTKVDKKVEPKSCDKTHTCPPCPAPEAAGGPSVFLFPPKPKDTLMISRTPEVTCVVVDVSHEDPEVKFNWYVDGVEVHNAKTKPREEQYASTYRVVSVLTVLHQDWLNGKEYKCKVSNKALPAPIEKTISKAKGQPREPQVYTLPPSRCELTKNQVSLSCAVKGFYPSDIAVEWESNGQPENNYKTTPPVLDSDGSFFLVSKLTVDKSRWQQGNVFSCSVMHEALHNHYTQKSLSLSPDYKDDDDK
chain: EPKSSDKTHTCPPCPAPELLGGPSVFLFPPKPKDTLMISRTPEVTCVVVDVSHEDPEVKFNWYVDGVEVHNAKTKPREEQYNSTYRVVSVLTVLHQDWLNGKEYKCKVSNKALPAPIEKTISKAKGQPREPQVCTLPPSRDELTKNQVSLWCLVKGFYPSDIAVEWESNGQPENNYKTTPPVLDSDGSFFLYSKLTVDKSRWQQGNVFSCSVMHEALHNRYTQKSLSLSP
light: DIVMTQSPLSLPVTPGEPASISCRSSQSPVHSNRNTYIHWYQQKPGQAPRLLIYKVSNRFSGVPDRFSGSGSGTDFTLKISRVEAEDVGVYYCGQGTQVPYTFGQGTKLEIKRTVAAPSVFIFPPSDEQLKSGTASVVCLLNNFYPREAKVQWKVDNALQSGNSQESVTEQDSKDSTYSLSSTLTLSKADYEKHKVYACEVTHQGLSSPVTKSFNRGEC
notes: single-arm

These binders were tested against T1, soluble human CD3ε chain (human, UniProt P07766 23-126, limits assumed) (assay: SPR (Biacore)).
T1 construct: the text says soluble human CD3ε chain; also called human CD3 epsilon chain
T1 sequence (P07766 23-126 limits assumed): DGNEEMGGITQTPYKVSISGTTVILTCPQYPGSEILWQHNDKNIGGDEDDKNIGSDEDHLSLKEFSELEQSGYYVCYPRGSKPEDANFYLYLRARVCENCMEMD

B1 and B2 are within 1.5-fold of each other in Kd: 43.1 nM for the first, 60.2 nM for the second.

B3 and B4 are within 1.5-fold of each other in Kd: 60.3 nM for the first, 59.3 nM for the second.

With B5 the Kd was 47.9 nM.
